Experimental data: patent US20250154277A1 (CONCEPT TO MEDICINE BIOTECH, published 2025)
Where two headings read alike, the source gives them in different places. Values belong to the molecule of their own block, whether it stands above or below them.

Tests used:
[1] = target: T1, human 5T4-His protein (human, UniProt Q13641 32-355); assay: ELISA, coated human 5T4-His
T1 construct: also called recombinant 5T4 protein (human 5T4-his tag); human 5T4 protein; not shown: His tag
T1 sequence (looked up): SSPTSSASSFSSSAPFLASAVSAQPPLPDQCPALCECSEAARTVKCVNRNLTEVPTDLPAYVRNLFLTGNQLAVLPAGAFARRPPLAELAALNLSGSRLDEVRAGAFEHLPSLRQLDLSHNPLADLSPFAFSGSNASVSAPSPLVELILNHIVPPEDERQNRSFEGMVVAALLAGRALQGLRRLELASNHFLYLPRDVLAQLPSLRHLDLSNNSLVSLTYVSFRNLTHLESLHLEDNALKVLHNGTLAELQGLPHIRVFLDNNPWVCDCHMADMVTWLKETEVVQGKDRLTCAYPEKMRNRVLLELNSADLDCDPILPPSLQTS

[2] = target: T1, human 5T4-His protein; assay: ELISA, coated human 5T4-His; remark: listed apart in the source
[3] = target: T2, human 5T4 expressed on cells (human, UniProt Q13641 32-420); assay: flow cytometry, CHOK1-hu5T4 cells
T2 construct: whole, on cells; also called CHOK1-hu5T4; CHO-K1-expressing human 5T4
T2 sequence (looked up): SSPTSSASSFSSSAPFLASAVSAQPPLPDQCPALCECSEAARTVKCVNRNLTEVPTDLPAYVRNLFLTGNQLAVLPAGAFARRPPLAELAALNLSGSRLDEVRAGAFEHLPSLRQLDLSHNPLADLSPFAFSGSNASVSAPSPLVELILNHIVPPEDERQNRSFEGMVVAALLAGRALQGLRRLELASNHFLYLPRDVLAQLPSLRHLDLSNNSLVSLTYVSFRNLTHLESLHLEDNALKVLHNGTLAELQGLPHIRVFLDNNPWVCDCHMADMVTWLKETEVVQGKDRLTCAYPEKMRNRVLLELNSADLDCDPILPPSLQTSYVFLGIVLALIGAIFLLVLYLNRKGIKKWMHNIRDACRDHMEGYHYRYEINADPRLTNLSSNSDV

[4] = target: T2, human 5T4 expressed on cells; assay: flow cytometry, CHOK1-hu5T4 cells; remark: listed apart in the source
[5] = target: T2, human 5T4 expressed on cells; assay: flow cytometry, HEK293-hu5T4 cells
[6] = target: T1, human 5T4-His protein; assay: competitive ELISA, coated human 5T4, vs naptumomab-biotin
[7] = target: T1, human 5T4-His protein; assay: as above; remark: listed apart in the source
[8] = target: T1, human 5T4-His protein; assay: as above; remark: listed apart in the source
[9] = target: T1, human 5T4-His protein; assay: as above; remark: listed apart in the source
[10] = target: T1, human 5T4-His protein; assay: SPR Biacore, Protein A capture
[11] = target: T1, human 5T4-His protein; assay: ELISA, coated antigen
Description: (§1) ELISA testing was carried out to evaluate the binding of chimeric antibodies to human and cynomolgus, respectively. The antibody portion of naptumomab (NeoTX) that targets 5T4 (abbreviated as naptumomab in the present disclosure), was generated and used as a benchmark.
(§2) Briefly, microtiter plates were coated with human and cynomolgus 5T4 proteins at […] in PBS, 100 μl/well at 4° C. overnight, then blocked with 150 μl/well of 1% BSA. Serial dilutions of chimeric antibodies were added to each well and incubated for 1 hour at RT. The plates were washed with PBS/Tween and then incubate with mouse-anti-human IgG Fc antibody conjugated with Horse Radish Peroxidase (HRP) for 30 mins at RT. After washing, the plates were developed with TMB substrate and analyzed by spectrophotometer at OD 450 nm. All the 5T4 chimeric mAbs bound to human and cynomolgus 5T4 (FIG. 1-2 and Table 3).

[12] = target: T3, cynomolgus 5T4 protein (cynomolgus monkey, UniProt Q4R8Y9 35-355, limits assumed); assay: ELISA, coated antigen
T3 construct: Coated protein in ELISA; the screening step names a cyno 5T4-His protein; also called cyno 5T4; recombinant cyno 5T4-His protein
T3 sequence (looked up): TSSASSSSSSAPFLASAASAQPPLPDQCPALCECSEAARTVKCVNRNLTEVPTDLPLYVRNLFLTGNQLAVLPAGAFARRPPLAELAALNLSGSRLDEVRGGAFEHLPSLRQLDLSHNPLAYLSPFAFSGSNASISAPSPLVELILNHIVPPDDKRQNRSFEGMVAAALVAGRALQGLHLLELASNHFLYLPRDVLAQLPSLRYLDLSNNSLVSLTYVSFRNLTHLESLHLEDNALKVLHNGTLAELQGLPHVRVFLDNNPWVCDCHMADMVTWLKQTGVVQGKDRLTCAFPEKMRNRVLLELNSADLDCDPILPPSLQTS
Description: as §1, §2

[13] = target: T1, human 5T4-His protein; assay: ELISA, coated 5T4-His
[14] = target: T1, human 5T4-His protein; assay: SPR Biacore, Protein A capture; remark: listed apart in the source
Description: The binding of the 14G12 humanized antibodies to recombinant 5T4 protein (human 5T4-his tag) was tested with Biacore using a capture method. The mAbs were captured using Protein A chip. Serial dilution of human 5T4-his tag protein was injected over captured antibody for 120 s-180 s at a flow rate of 30 μl/min. The antigen was allowed to dissociate for 360 s-1000 s. All the experiments were carried out on a Biacore T200. Data analysis was carried out using the Biacore T200 evaluation software.

[15] = target: T1, human 5T4-His protein; assay: SPR Biacore, Protein A capture; remark: listed apart in the source
Description: The binding affinity of tested antibodies against recombinant 5T4 protein (human 5T4-his tag) was tested with Biacore using a capture method. The antibodies were captured using Protein A chip. A serial dilution of human 5T4-his tag protein was injected over captured antibody for 3 mins at a flow rate of 30 μl/min. The antigen was allowed to dissociate for 300 s. All the experiments were carried out on a Biacore T200. Data analysis was carried out using Biacore T200 evaluation software.

[16] = target: T1, human 5T4-His protein; assay: ELISA, coated human 5T4-His; remark: listed apart in the source
Description: (§3) Briefly, microtiter plates were coated with human 5T4-His protein at 2 μg/ml in PBS, 30 μl/well at 4° C. overnight, then blocked with 5% PBS/Milk. Serial dilutions of antibodies were added to each well and incubated for 1 hour at room temperature. The plates were washed with PBS/Tween and then incubated with Goat Anti-Human IgG-HRP for 50 mins at room temperature. After washing, the plates were developed with TMB substrate and analyzed by spectrophotometer at OD 450 nm.

[17] = target: T1, human 5T4-His protein; assay: ELISA, coated human 5T4-His; remark: listed apart in the source
Description: as §3

[18] = target: T2, human 5T4 expressed on cells; assay: flow cytometry, MCF-7 cells
Description: (§4) To evaluate the binding property of affinity maturated antibodies to surface 5T4, tested antibodies were analyzed for their binding to CHOK1-hu5T4, HEK293-hu5T4 or MCF-7 cells by FACS. […] After wash by FACS buffer, PE conjugated-anti-human IgG antibody was added to each well and incubated at 4° C. for 30 minutes. MFI of PE was evaluated by MACSQuant Analyzer 16.

[19] = target: T2, human 5T4 expressed on cells; assay: flow cytometry, CHOK1-hu5T4 cells; remark: listed apart in the source
Description: as §4

[20] = target: T2, human 5T4 expressed on cells; assay: flow cytometry, CHOK1-hu5T4 cells; remark: listed apart in the source
Description: as §4

[21] = target: T2, human 5T4 expressed on cells; assay: flow cytometry, HEK293-hu5T4 cells; remark: listed apart in the source
Description: as §4

[22] = target: T2, human 5T4 expressed on cells; assay: flow cytometry, HEK293-hu5T4 cells; remark: listed apart in the source
Description: as §4

EC50 (read off the curve) [1]: 0.2 nM
EC50 (read off the curve) [2]: 0.1 nM
EC50 (read off the curve) [3]: 2 nM
EC50 (read off the curve) [4]: 1 nM
EC50 (read off the curve) [5]: 2 nM
IC50 (read off the curve) [6]: 3 nM
IC50 (read off the curve) [7]: 5 nM
IC50 (read off the curve) [8]: 4 nM
IC50 (read off the curve) [9]: 6 nM
Molecule: naptumomab (antibody portion of naptumomab (NeoTX) that targets 5T4)

Kd [10]: 0.59 nM
koff [10]: 0.000486 s⁻¹
kon [10]: 823000 M⁻¹ s⁻¹
EC50 [11]: 0.13 nM
EC50 [12]: 0.28 nM
B1: 37G6 chimeric antibody (antibody, V domains shown)
VH: QVQLQQPGAELVKPGASVKMSCKASGYTFTSYWITWVKQRPGQGLERIGDIYPGSGTINYNEKFKSKATLTVDTSSSTAYMQLSSLTSEDSAVYCCARSDGNYYFDYWGQGTTLKVSS
VL: QIVLSQSPAILSASPGEKVTMTCRASSSVNYMHWYQQKPGSSPKPWIYATSNLASGVPVRFSGSGSGTSYSLTISRVEAEDAATYYCQQWSSNPPTFGGGTKLEIK

EC50 [13]: 0.01 µg/mL
Kd [14]: 2.42 nM
koff [14]: 0.000714 s⁻¹
kon [14]: 295000 M⁻¹ s⁻¹
Kd [15]: 4.09 nM
koff [15]: 0.000738 s⁻¹
kon [15]: 180000 M⁻¹ s⁻¹
EC50 (read off the curve) [16]: ~0.2 nM
EC50 (read off the curve) [17]: ~0.1 nM
EC50 (read off the curve) [18]: ~0.2 nM
EC50 (read off the curve) [19]: ~2 nM
EC50 (read off the curve) [20]: ~1 nM
EC50 (read off the curve) [21]: ~2 nM
EC50 (read off the curve) [22]: ~2 nM
B2: Hu14G12-28 (antibody, V domains shown)
VH: QVQLVQSGAEVKKPGASVKVSCKASGYAFSSSWMNWVRQAPGQGLEWMGRIYREDGHTNYNGKFKGRVTMTADKSITTAYMELSRLRSDDTAVYYCANGGAMDYWGQGTLVTVSS
VL: DIQMTQSPSSLSASVGDRVTITCRASQDISNYLNWYQQKPGKAPKLLIYYTSRLHSGVPSRFSGSGSGTDYTFTISSLQPEDIATYFCQQDNTLPWTFGGGTKVEIK
notes: humanized; also called parental Hu14G12-28 antibody
